Columns and labels:
[1] = target: T1, ɸEL (gp146) (Pseudomonas phage EL, UniProt Q2Z0T5); experiment: cryo-EM structure ([…] Å); type: binding; conditions: double ring, D7, pH 7.5, Mg2+; pseudo-atomic model; ADP also modelled in crystal form II (6TMU, chains B, D, F, partial occupancy)
T1 construct: tetradecameric double ring (~863 kDa) or single-ring heptamer (~431 kDa, with ATP and in the crystals)
T1 sequence (Q2Z0T5 1-558): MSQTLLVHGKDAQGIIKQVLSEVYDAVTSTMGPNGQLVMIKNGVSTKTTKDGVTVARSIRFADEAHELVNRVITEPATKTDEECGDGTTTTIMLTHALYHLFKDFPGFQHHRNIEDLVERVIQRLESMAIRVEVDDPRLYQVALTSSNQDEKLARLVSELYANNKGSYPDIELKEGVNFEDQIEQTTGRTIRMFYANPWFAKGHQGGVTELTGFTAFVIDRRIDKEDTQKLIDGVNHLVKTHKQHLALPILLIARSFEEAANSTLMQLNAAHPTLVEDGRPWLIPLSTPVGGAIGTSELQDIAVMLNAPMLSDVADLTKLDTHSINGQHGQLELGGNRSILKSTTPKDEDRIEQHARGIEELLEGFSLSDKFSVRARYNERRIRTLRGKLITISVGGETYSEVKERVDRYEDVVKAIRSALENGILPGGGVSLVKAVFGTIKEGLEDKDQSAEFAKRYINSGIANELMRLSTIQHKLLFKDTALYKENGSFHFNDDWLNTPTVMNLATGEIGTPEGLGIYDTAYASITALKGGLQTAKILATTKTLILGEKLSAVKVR

[2] = target: T1, ɸEL (gp146); experiment: X-ray crystal structure ([…] Å, crystal form I); type: binding; conditions: ATP added with BeSO4/NaF; ATP and ADP-BeFx not distinguishable, modelled as ATP with Mg2+; single-ring heptamer, equatorial domain site; also in form II (6TMU, 3.54 Å; chains A, C, E, G)
[3] = target: T2, GroEL (Escherichia coli, UniProt P0A6F5); experiment: NADH-coupled ATPase assay; type: biochemical; conditions: 1 mM ATP, 50 mM Tris-HCl pH 7.5, 10 or 100 mM KCl, 10 mM MgCl2, 25°C; without GroES; rates only in figure
T2 construct: purified GroEL tetradecamer; source and preparation not described
T2 sequence (P0A6F5 2-548): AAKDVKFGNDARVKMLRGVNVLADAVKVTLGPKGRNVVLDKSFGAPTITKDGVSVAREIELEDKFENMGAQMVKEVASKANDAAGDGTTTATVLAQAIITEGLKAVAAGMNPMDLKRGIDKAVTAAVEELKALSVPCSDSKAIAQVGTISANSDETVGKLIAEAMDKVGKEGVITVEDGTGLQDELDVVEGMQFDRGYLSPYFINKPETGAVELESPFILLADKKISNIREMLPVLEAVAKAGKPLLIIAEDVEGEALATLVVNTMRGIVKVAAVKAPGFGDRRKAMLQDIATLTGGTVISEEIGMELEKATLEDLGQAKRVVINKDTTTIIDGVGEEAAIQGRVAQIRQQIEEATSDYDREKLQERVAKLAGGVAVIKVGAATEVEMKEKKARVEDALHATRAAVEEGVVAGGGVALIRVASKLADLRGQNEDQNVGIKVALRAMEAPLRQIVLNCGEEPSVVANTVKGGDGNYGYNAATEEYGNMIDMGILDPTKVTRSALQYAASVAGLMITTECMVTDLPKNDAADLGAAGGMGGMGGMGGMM

[4] = target: T1, ɸEL (gp146); experiment: cryo-EM structure ([…] Å); type: binding; conditions: double ring, D7, pH 7.5, Mg2+; slowly hydrolysed ATP analogue; pseudo-atomic model
[5] = target: chaperonin gp146 (ɸEL) from the phage EL of Pseudomonas aeruginosa (Pseudomonas bacteriophage EL); experiment: cryo-EM structure; ɸEL with ADP, single particle analysis, D7 symmetry, 5.9 Å
[6] = target: chaperonin gp146 (ɸEL) from the phage EL of Pseudomonas aeruginosa (Pseudomonas bacteriophage EL); experiment: cryo-EM structure; ɸEL with ATPγS, single particle analysis, D7 symmetry, 5.8 Å
[7] = target: chaperonin gp146 (ɸEL) from the phage EL of Pseudomonas aeruginosa (Pseudomonas bacteriophage EL); experiment: cryo-EM structure; apo-ɸEL, no nucleotide, single particle analysis, C2 symmetry, 3.45 Å
[8] = target: chaperonin gp146 (ɸEL) from the phage EL of Pseudomonas aeruginosa (Pseudomonas bacteriophage EL); experiment: SEC-MALS; ɸEL at 2 g/L, with 2 mM ATP, 20 mM HEPES-NaOH pH 7.5, 50 mM KCl, 4 mM Mg acetate, 25°C
[9] = target: chaperonin gp146 (ɸEL) from the phage EL of Pseudomonas aeruginosa (Pseudomonas bacteriophage EL); experiment: SEC-MALS; ɸEL at 2 g/L, with 2 mM ATP, 20 mM HEPES-NaOH pH 7.5, 100 mM KCl, 2 mM Mg acetate, 25°C
[10] = target: chaperonin gp146 (ɸEL) from the phage EL of Pseudomonas aeruginosa (Pseudomonas bacteriophage EL); experiment: crystal structure; ɸEL crystallised with 2 mM ATP, 5 mM BeSO4 and 20 mM NaF; crystal forms I (4.03 Å) and II (3.54 Å)
[11] = target: chaperonin gp146 (ɸEL) from the phage EL of Pseudomonas aeruginosa (Pseudomonas bacteriophage EL); experiment: SEC-MALS; ɸEL at 2 g/L, no nucleotide, 20 mM HEPES-NaOH pH 7.5, 100 mM KCl, 2 mM Mg acetate (also run at 50 mM KCl), 25°C
[12] = target: chaperonin gp146 (ɸEL) from the phage EL of Pseudomonas aeruginosa (Pseudomonas bacteriophage EL); experiment: SEC-MALS; ɸEL at 2 g/L, with 2 mM ADP, 20 mM HEPES-NaOH pH 7.5, 100 mM KCl, 2 mM Mg acetate (also run at 50 mM KCl), 25°C
[13] = target: T3, GroEL from E. coli (E. coli, UniProt P0A6F5 1-548)
T3 sequence (P0A6F5 whole entry): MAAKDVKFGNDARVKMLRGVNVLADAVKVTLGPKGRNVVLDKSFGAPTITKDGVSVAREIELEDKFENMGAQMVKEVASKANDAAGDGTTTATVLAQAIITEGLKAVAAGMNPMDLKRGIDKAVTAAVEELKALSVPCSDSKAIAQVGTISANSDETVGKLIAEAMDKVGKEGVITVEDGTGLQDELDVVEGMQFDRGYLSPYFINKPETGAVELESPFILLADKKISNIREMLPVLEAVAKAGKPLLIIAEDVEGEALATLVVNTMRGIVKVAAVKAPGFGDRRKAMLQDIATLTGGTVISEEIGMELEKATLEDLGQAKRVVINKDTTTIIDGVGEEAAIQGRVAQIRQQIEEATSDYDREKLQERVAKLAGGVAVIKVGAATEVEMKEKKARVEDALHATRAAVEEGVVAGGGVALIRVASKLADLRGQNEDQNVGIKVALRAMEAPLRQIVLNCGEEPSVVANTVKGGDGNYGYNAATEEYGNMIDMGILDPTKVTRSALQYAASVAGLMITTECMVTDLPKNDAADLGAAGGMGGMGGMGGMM

[14] = target: chaperonin gp146 (ɸEL) from the phage EL of Pseudomonas aeruginosa (Pseudomonas bacteriophage EL)
[15] = target: T3, GroEL from E. coli; experiment: cell-based or functional assay
[16] = substrate: Nc1ncnc2c1ncn2[C@@H]1O[C@H](COP(=O)(O)OP(=O)(O)OP(=O)(O)O)[C@@H](O)[C@H]1O; experiment: NADH-coupled ATPase assay (pyruvate kinase/lactate dehydrogenase), Hill fit; type: biochemical, Pseudomonas phage EL; conditions: high salt: 50 mM Tris-HCl pH 7.5, 100 mM KCl, 10 mM MgCl2, 25°C, Hill coefficient fitted

For Nc1ncnc2c1ncn2[C@@H]1O[C@H](COP(=O)(O)OP(=O)(O)O)[C@@H](O)[C@H]1O [ADP], the “cryo-EM structure (5.9 Å)” value [1] was “we determined the solution structure of ɸEL in the presence of ADP by single-particle cryo-EM”.

In the case of Nc1ncnc2c1ncn2[C@@H]1O[C@H](COP(=O)(O)OP(=O)(O)OP(=O)(O)O)[C@@H](O)[C@H]1O [ATP], the “X-ray crystal structure (4.03 Å, crystal form I)” value [2] is reported as “All subunits as judged from the electron density had either ATP or ADP•BeFX bound” and the “NADH-coupled ATPase assay” value [3] is reported as “ATPase activity of GroEL and ɸEL in presence and absence of a two-fold excess”.

With Nc1ncnc2c1ncn2[C@@H]1O[C@H](COP(=O)(O)OP(=O)(O)OP(O)(O)=S)[C@@H](O)[C@H]1O [ATPγS] the “cryo-EM structure (5.8 Å)” value [4] was “we also determined the cryo-EM structure of ɸEL in the presence of the slowly hydrolyzing”.

Work on “chaperonin gp146 (ɸEL) from the phage EL of Pseudomonas aeruginosa (natural protein)” yielded a stoichiometry N [5] of 14, a stoichiometry N [6] of 14 and a stoichiometry N [7] of 14. For the same molecule, the stoichiometry N [8] was 14, the stoichiometry N [9] was 7 and the stoichiometry N [10] was 7. It also gave a stoichiometry N [11] of 14 and a stoichiometry N [12] of 14.

“double mutant of maltose binding protein (DM-MBP), denatured (from UniProt P0AEX9 27-396) (natural protein)” showed a GroEL ATPase activity with denatured DM-MBP, at 10 and 100 mM KCl, 1 mM ATP [13] of 2 fold and a decrease in ɸEL ATPase activity with denatured DM-MBP, at 10 mM KCl, 1 mM ATP [14] of 60%.

B1: E. coli GroES (natural protein)
chain: MNIRPLHDRVIVKRKEVETKSAGGIVLTGSAAAKSTRGEVLAVGNGRILENGEVKPLDVKVGDIVIFNDGYGVKSEKIDNEEVLIMSESDILAIVEA
B1 was tested, and the “decrease in GroEL ATPase activity with a 2-fold molar excess of GroES, at 10 and 100 mM KCl, 1 mM ATP” value [15] was roughly 50%.

B2: ɸEL (gp146) (Pseudomonas phage EL) (protein)
chain: T1 sequence (Q2Z0T5 1-558)
notes: tetradecameric double ring (~863 kDa) or single-ring heptamer (~431 kDa, with ATP and in the crystals)
B2 was tested, and the Km [16] was 72 ± 8 µM and the kcat [16] was 9.6 ± 0.12 s⁻¹ (per tetradecamer).

From PMC7185714, “Structure and conformational cycle of a bacteriophage-encoded chaperonin” (PLoS ONE, 2020)
